Results as given in the DeepSol protein solubility set.

Assay: soluble on expression in E. coli; label from the status in PepcDB or PDB records

Sequence	soluble on expression in E. coli
MPKELWPLTGSRLEGSSMADRRRQRRTSKAGVGGRRVEYKRVPLGFIKAIVKTGHVVVEPSEKVRRNPPRGRFQVLLAGDGEVGYVSDVIGPINSPFIVVRVRERGVIEKLSPGAELIMLVPPKKPPRKGAPRRGSSRGRRGFKKGKARG	soluble
RSVAYDLIFGNKNTTKYYAQFVKEHKTHLYEQIKQINNDEFRFVEKTKRHNLG	not soluble
MAHHHHHHMTETTGARGRRTFMGRRRSQHEVQTEASFVPGCSSLEYAYDPLASEQYANLVELRQMIHSCLTLVAGDVYDVVSFKDILYHLESEMPSSLPVTDLLLLSSRLFRRTAELGRLLSCFFGVVFADDRNDEHFRFAEVRLLQREIRELKRQLSASEEERRRLKEMLDNVGQVAYDHGRAVELLETHNKVLKKQSTALEDQMALLFHQLNTGLEGHCKSAYQQVTGEMMVQESLNPARITFRQTMDSLSEQLRGSRGLITDVREVLLSCSQGRRTGEAYAAVEPTVRFKLKMLEANFQQLMGRFTAVKDTVVETAQELMNALQERKKILCLSFQHIRLYDLQNAKLRNARAILAQLQHNTSEVVRRIRVTFPSGNLTSVDRFGNIRTQRWHGGYTLATLRGYNLTEQQQQGEGEMSEVARSSTAVPSLTAGASRTLPGLTESQIMAAESEMAVIDGGVHSVTPVGLALSPGFRSMRASHSGVSPPPLRTSVPPSRGGSKLASARGSSSTTGMPAPVSAPTSVRSDDPDVLPFESVSTFVDLMHDIHDDMDELQSALVLDDEMAAFLKVLTLSASTTPRADALEIAGDPTGRAALLERQEYNMETALQPTGGRPGGTRGAPSSASVVSGNESITALEANSFSSLFSKMGTPSTSSEARGGARAENASSEAVMARQAVQLQRQQKQIAKMQEDFTSKVGFLRQVYEARIGDLEVRETTVSKRLGLVGGSAFQRGAGDGGSGRSSPGVRKGEDESPVSSSPGDKERLTKLRKEWRQSKRKLQPNRKLREATAEQLQLMQKDEKL	not soluble
MGSDKIHHHHHHMRTSLLYKIKEEERILPSKNLKGNEIIFILAFPDIYKYGLPNLGIQTLYKELYLRDDVAVDRYYTDEDQPFSFEYGFKLKDSDFIGISFQYEGIVLNAFKILKAGSIPLINLLREENDPIIIGGGPVANYNPLPLSLVCDVIVLGEAEEAIHKIIDSYKVYRNVKRKRMKFLQAVSQIEGIYVPCIHGFFQTGMVKQTSPVDINEHPAHSIFVTKNTVYEERVFSIEVRRGCTQRCRFCYMGHRLKPPRTLRWETFKKIVDLAIDQCNVEIIKLFYEGLETRIVEHYLEYIIKKGGRVRIGSQRLEKLSKRIIEIAAISGQRKITVAPETSGRLRKVIGKHEIKDEEILEVVRISSLYGIPDFGLYFILAIPGETFEDLDKIADLIMKVRHQMNKLKNTDGRLEIGINPLYPKPFTPFQYVKLPSLKNIEDRFLYIVEKVKKEGFPVVISNDVVDEKVEKRQKDENENESLVKFETTVFHPISLLQPMISRGGLEIAFLLHYLHSKRFNTVSDLENLLNEFGINAAWYFEEYIDKYCPWKIQKTLISEDYLLKEYFKALNFISTDEECKLNCSQCFNRCIDISTTNYQGGMSNA	not soluble
MGSDKIHHHHHHGMDKLSTKNYHTLLEVINDQEMIASPNTQLDSQVIANSSPFGGEVVTNRSKNIDGYTVEWSNLRSRYSFFRNSIDWNEVYPGSYYSSKNFYEYNRQTKQKVASFYNPAITNYYGGIKNELSELDKMENQVAEVAISFDKPYPYEEVRKMLPSNVNLVWLYVYSETVNEAEGPSGTLPYGFQLSMDDQNEIFDPENDKQHFFETLEKSPLFADNQEGQKFIQQNKNKKVEKLPIWGVMLTGQTKNFKALQNEPFVRGASIGVTAPIVPYIQPEK	not soluble
MVFRKSLLKLAVFALGACVAFSNANAAEGKLESIKSKGQLIVGVKNDVPHYALLDQATGEIKGFEVDVAKLLAKSILGDDKKIKLVAVNAKTRGPLLDNGSVDAVIATFTITPERKRIYNFSEPYYQDAIGLLVLKEKKYKSLADMKGANIGVAQAATTKKAIGEAAKKIGIDVKFSEFPDYPSIKAALDAKRVDAFSVDKSILLGYVDDKSEILPDSFEPQSYGIVTKKDDPAFAKYVDDFVKEHKNEIDALAKKWGL	soluble
MVDQAQDTLRPNNRLSDMQATMEQTQAVENRVLERLNAGKTVRSFLITAVELLTEAVNLLVLQVFRKDDYAVKYAVEPLLDGDGPLGDLSVRLKLIYGLGVINRQEYEDAELLMALREELNHDGNEYAFTDDEILGPFGELHCVAALPPPPQFEPADSSLYAMQIQRYQQAVRSTMVLSLTELISKISLKKAFQK	not soluble
MVVYGKQKYIMKRCFYMNKKLKTEAVDHLFQAILTLKSTEECYSFFEDVCTVNELLSFSQRYEVAKMLREKRTYLEIADKTGASTATISRVNRSLNYGNDGYDMVFKRLEDQAAEDNEA	not soluble
MGSDKIHHHHHHAADRPTQPVRTEVYRLERLDSVLLVDLAVDLTGVHLAPDCTVYLFPLLASENTGDSLSLPPIVLNGPQSDLMYRRRRALGTTSGLEKITPYTVLREGDHALPRIHYRTEVPYAAWMDDVKVWMRDTNCNCDARLVPFAMHTEHIPPLVVERVDTIVIHDTIRLASVASGQSTVASDIPLRKKVTRIQAGYEADIYFPTNEMRILPDHELNRASWMHFVNQVDSIEQDNRNSISGVTVTGYSSPEGYTSNNERLAEKRAKALQAFLENKYGERMEVAVEWVGEDWKQFEKDIEVSDLPERNEILSILRTVSDSNQRKSRLKALNKGKTFGILLREYFPKLRRVSCRIRYVK	not soluble
MGSDKIHHHHHHMERLCEQVRKVRRWLIDQPFDGILLSEQKNIAWLTGARAYVNLATERSIVFFLITESETVMYCSNIEKERLLAEEIGDTVGEIHVFPWYDPLLAESITQEQSKIGKVVLDREVESAFKAVRSALSPSQVAGYRQLGKLSAAAVEETALGLQRGETELEIAGRLANAAIKRGIEPVVNLVAVDDRVSAYRHPLPTDKRLDRYVMIVLSGRRNGQYISLTRLVHFGVIPIDLKKKHAAVCTIDSRLMHHTRVGQSMGDLFKEMKAAYATVGYLHEWKNHHQGGLTGYVGRERLLQPDAQELIQANEVYAWNPSITGTKSEDTILVTESGPEILTLGKKFPLMTVTVAGCTYERPDILGRNDG	not soluble
MGSDKIHHHHHHMEEIKEQNNRLFLLLSIMIMEFSNAKTESDILQGLLNLVRKVVDIKEVVLVDENKRKIWGRDIDIKRFEEFIDWSIRQSNPVFVEDELGYVGIVPVVKQDRMFGSLIVLLNHQPSMEETEIFKVLSFLSAVVLENIKLYRELEETYNYVNVILNGLPEGIFVYSNGEIKFQNEKFKEENFPDEVLRKAISLSEEAISLRTQRVGEVISGEEFFSITSIPLILGSEVQALTIVENVTESKELERLKRIDRMKTEFIANISHELRTPLTAIKAYAETIYNSLGELDLSTLKEFLEVIIDQSNHLENLLNELLDFSRLERKSLQINREKVDLCDLVESAVNAIKEFASSHNVNVLFESNVPCPVEAYIDPTRIRQVLLNLLNNGVKYSKKDAPDKYVKVILDEKDGGVLIIVEDNGIGIPDHAKDRIFEQFYRVDSSLTYEVPGTGLGLAITKEIVELHGGRIWVESEVGKGSRFFVWIPKDRAGEDNRQDN	not soluble
MSDFEETIRRLQSEKGVVGIIVVDSAGRVIHSTIDSDATQSHTAFLQQLCEKTKTSIRELDSSNDLTFLRLRTKKNEIMIAPDKDHVIMVIKDLS	not soluble
MADLFPADFEPVFINIGDLELYNQDLDDEGTPTEAWTTFREEVKQVDGVMFVTPEYNRSVPAVLKNALDVGSRPYGESVWDKKPGLVVSVSPGAISGFGANHHLRQSLVFLNVPTLQQPEAYIGGITNLIGEDGKIIDGTVGFLQSIVDAYVDFFNRLTA	not soluble
SFLSEAGARPRAGEISASERRKWVEVFKACDEDNKGYLSREDFKVAIVMLFGYKPSKIEADAVMSSANPDTSGVSLEGFLNVVQRKKEAQLYRNEIRHIFTAFDVHYRGFLTLEDFKRAFSQVAPKLPSRTVLEVFREADQDSDGHVSFRDFEYAMNHGKAK	soluble
GAMSCIKGNVDLVFLFDGSMSLQPDEFQKILDFMKDVMKKLSNTSYQFAAVQFSTSYKTEFDFSDYVKRKDPDALLKHVKHMLLLTNTFGAINYVATEVFREELGARPDATKVLIIITDGEATDSGNIDAAKDIIRYIIGIGKHFQTKESQETLHKFASKPASEFVKILDTFEKLKDLFTELQKKIYVIEG	soluble
MQDEKNFMSGVKENLDVLFTKLEKFLRTETVIGQPIKVGETTLIPIVTVMFGCGTGGGVGDNKGIKGQGGGLGTGARISPDAVLVIKNDDVQMLPVKKGANLSKLIEMVPEIVSKIKIDKENKEKEEVKKEENLEHHHHHH	soluble
MTNTTMQPNRLRIALQKKGRLSQDCAILLKQCGVKINWNEQRLIAYAENLPIEILRVRDDDIPGLIFDGVVDLGIIGENVLEEEELGRRAANETVTYKKLRQLDFGDCRLSLAVDRDCHYENVKDLANRRIATSYPHLLKRYMNENGVSFKSCLLNGSVEVAPSAGIAYAICDLVSSGATLEANGLKEVDVIYRSKACLIQRAEPLESTKQALVDKLLTRIQGVQQAAESKYIMLHAPKEKLEKITALLPGVENPTILPLASDTTRVAMHVVSQENLFWETMEQLKEAGASSILVLPIEKMMELEHHHHHH	soluble
MNAQRVVVMGLGNLLWADEGFGIRVAERLYARYHWPEEVEIVDGGTQGLNLLGYVEQASHLLLLDAIDYGLAPGSLRTYAGEKIPAYLSAKKMSLHQNSFSEVLALADIRGHLPCHIALVGLQPALLDDYGGSLSEIARSQLPAAEQAALAQLAAWGIVPQANEVARCLNYKCLSMENYEGVRIRQYQTRLEGKRSGE	not soluble
MGSDKIHHHHHHMKLVSLRLEEGLIEKIDEVARKTLQSRSEIIRSSIALYLSLLENIGFYFKPSLPMKNVDVYEERNAVNVDLGNLTSVSVLSVSYGGVGELELDFRKDLGFVAEVMANQVAVETCCRFITPLLVMLTSTCEFLYTHTFFRMFSEAIRERMKVRTMLAGYEEFFETKQSGFVATVVGLRDMSTRNSPRRGDRIYFFGNAVSGAELSEEELLDMADVERLVGLVKEGKASAIFPVKSGGLKEVADYAAALAGGKAMLFEKRGGCPATAIVLTSAEDLSGYGCELVGEIL	not soluble
MSVDKSPVYEVKAVPVEKVLANDYNPNVVAPPEMKLLELSIWEDGFTMPCVCYYNKEEDNYILVDGYHRYTVLKTSKRIYKRENGLLPIVVIDKDLSNRMSSTIRHNRARGMHN	soluble
MAHHHHHHVDDDDKMSLLDAHIPQLIASHTAFAAKAGLMRHTIGQAEQQAMSAQAFHQGESAAAFQGAHARFVAAAAKVNTLLDIAQANLGEAAGTYVAADAAAASSYTGF	soluble
MSSVPRFWRNLGSRYNLEGTRCKECGEYFYPPRNVCVNCRRMGELEPFKFKGTGEIVSYTLIHTGAEGFEGQAPYTLAIIKLDEGPRLTSQVVGNTDNIQIGTRVRSVFRKLGEDGERGMIYYGTKFVPVDALEHHHHHH	soluble
MGSDKIHHHHHHMMPQTSLHQHVMNWAISVPGDKTLKRDIFNNIWITASQRYEYQHLTFMAQGIVELLNTEIGGVDVSIPINLFLQSTEATKYDAEMLDFAQRIVTVKDRQHIALLSENILQKMPYQPDSTSVHTTATQAFQAGQGVCQDHAHVLIAMCRALQLPARYVSGYLFDQNSPHLASHAWAEVFLDNQWYCFDVSNQLFTPKHHIYLAVGRDYLDVAPIRGVREKGGTENMMSVVQVLAC	not soluble
MPAALLISGPCKICDLPAHGNHFGVLSCRACAAFFRRASRSPRFQDKACEYGDCRIFDAGAYRCKICRLKKCYKVGMDASKFQKDRDLISSSNAYLKRTKVYAPQSLANFLGRPEFIISFEPEKASPFKTVIDVTDLVHKAAEIFQEVKVIFWHKPTLHGPIDVFFASNFAVL	soluble
